Assay results from the nanobody polyreactivity screen of Harvey et al. (2022).

Test: yeast display, Sf9 membrane polyspecificity reagent, FACS + sequencing; frameworks hold sequencing errors
Summary of the method: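 A synthetic nanobody library was expressed on Saccharomyces cerevisiae BJ5465 by galactose induction for 36–48 hours. The library was stained for 1 hour at 4 °C with 10% biotinylated, detergent-solubilized Sf9 membrane reagent and enriched with streptavidin microbeads before FACS. Low and high (top ~1%) gates were set on anti-HA fluorescence for expression and streptavidin fluorescence for reagent binding, and each polyreactivity label reflects the gate of origin.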

Row | Sequence | polyreactivity (PSR sort gate)
1 | QVQLVESGGGLVQAGGSLRLSCAASGRIFRPNAMGWNRQAPGKVRELVAAISSGGSTYYADSVKGRFTISRDNAKNTVYLQMNSLKPEDTAVYYCAARSRGYDIRYGYWGQGTQVTVSS | high polyreactivity
2 | QVQLVESGGGLVQAGGSLRLSCAASGLTLYRYAMGWYRQPPGKEREMVAGISWGGGSTYYADSVKGRFTISRDNAKNTVYLQMNSLKPEDTAVYYCAAGRLLYIPRYYYWGQGTQVTVSS | high polyreactivity
3 | QVQLVESGGGLVLAGGSLRLSCAASGRTFGVYAMGWYRQAPGKERELVADITYRDGSTYYADSVKGRFTISRDNAKNTVYLQMHSLKPEDTAVYYCAAAESTWFDWVWMDYWGQGTQVTVSS | high polyreactivity
4 | QVQLVESGGGLVQAGGSLRLSCAASGRIFQPYALGWYRQAPGKEREWVAAITRRAGSTYYADSVQGRFTISRDNAKNTVYLQMNSLKPDDTAVYYCAARGLYWAYEMEYWGQGTQVTVSS | low polyreactivity
5 | QVQLVESGGGLVQAGGSLRVSCAASGRTFGPYAMGWYRQAPGKERELVAAINSGDRTYYADSVKGRFTISRDNAKNTVYLQMNSLKQEDTAVYYCNARSRRPDDYWGQGTQVTVSS | low polyreactivity
6 | QVQLVESGGGLVQAGGSLRLSCAASGSIFRNNAMGWYIQAPGKERELVASITRRGGSTYYADSVKGRFTISRDNAKNTVYLQMNSLKPEYTAGSYCAATTQHRYTLNYWGQGTQVTVSS | high polyreactivity
7 | QVQLVESGGGLVQAGGSLRLSCAASGRIFGAYAKGWYRQAPGTERELVAAISGSGGSTSYADSVKGRFTISRDNAKNTVYLQMNSLKPEDTAVYYCNAVSYVDIWDDRRYYYWVQGTQVTVSS | low polyreactivity
8 | QVQLVESGGGLVKAGGSLRLSCAASGSIFKSNAMGWYRQAPGKEWELVAAISDSGGSTYYADSVKGRFTISRDNAKNTVYLQMNSLKPEDTAVYYCNADWSWYNYYDFDYWGQGTQVTVSS | low polyreactivity
9 | QVQLVESGGGLVQAGGSLRLSCAASGRIFWYYAMGWYRQAPGKERELVADISTGGSTNYADSVKGRFTISRDNAKNTVYLQMNSLKPEDTAVYYCATTVPVILYVTPSTYAVVGYEYWGQGTQVTVSS | low polyreactivity
10 | QVQLVESGGGLVQAGGSLRLSCAASGSIFHTYVMGWYRQAPGKERELVASITRSGGSTYYADSVKGRFTISRDNAMNTVYLQMNSLKPEDTAVYYCAATYRTANHRYYYWGQGTQVTVSS | high polyreactivity
11 | QVQLVESGGGLVQAGGSLRLSCAASGRIFGPYAMGWYRPATGKERELVAAISSRGSSTYYADSVKGRFTISRDNAKNTVYLQMNSLKPEDTAVYYCAARDYLAYYWGPSLYTFDYWGQGTEVTVSS | high polyreactivity
12 | QVQLVESGGGLVQAGGSLRLSCAASGSTLYVNAMGCYIQAPGKERELVAAISSGGGRTYYADSVKGRFTISRDNAKNTVYLQMNSLKPEETAVYYCARKPYYPYDYWGQGTLVTVSS | low polyreactivity
13 | QVQLVESGGGLVQAGGSLRLSCAASGSTFAYYAMGWYRQAPGKEREFVAAISSRKDSTYADSVKGRFTLSRDNAKNTVYLQMNSLKPEDTAVYYCAKGPYYWSSSRVRYDYWGQGTQVTVSS | high polyreactivity
14 | QVHLVESGGGLVQAGGSLRLSCAASGSIFVENAMGWYRQPPGKEREFVAAITRSGGSTYYADSVKGRFTISRDNAKNTVYLQMNSLKPEDTAVYYCAARIWDEQPAAGYYWGQGTQVTVSS | low polyreactivity
15 | QVQLVESGGGLVQAGGSLRLSCAASGRIFYRYAMGWYRQAPGKERELVAAISGRGGSTYYADSVKGRFTISRDNAKNTVYLQMNSLKPEDTAVYYCNALPVYRSLAYEVDYWGQGTQVTVSS | high polyreactivity
16 | QVQLVESGGGLVQAGGSLRLSCAASGITFGTYAMGWYRQAPGKERELDAAIDTSGDDTYYADSVKGRFTISRDNAKNTVYLQMNSLKPEDTAVYYCAADFPSAEVDYWGQGTQVTVSS | low polyreactivity
17 | QVQLVESGGGLVQAGGSLRLSCAASGRIFWSYDMGWYRQAPGKERELVASITSDGSTNYADSVKGRFTISRDNAKNTVYLQMNSLKPEDTAVYYCAARPYQYDPFAQGDGGKYDYWGQGTQVTVSS | low polyreactivity
18 | QVQLVESGGGLVQAGGSLRLSCAASGSTFYWYTMGWYRQAPGKERELVATINYSGGSTYYADSVKGRFTISRDNAKNTVYLQMNSLKPEDTAVYYCNKQVYVGWGSDYWGQGTQVTVSS | low polyreactivity
19 | QVQLVESGGGLVQAGGSLRLSWAASGPTCGQLAMVWYRQAPGKERELVAAISYSGARTYYADSVKGRFTISRDNAKNTVDLQMNSLIPQDTAVKYCNAYSAYVNGNRRGLGYWGQGTHVTVSS | high polyreactivity
20 | QVQLVESGGGLVQAGGSLRLSCAASGSTFDYNAMGWYRQAPGKERELVAAISSGGRTYYADSVKGRFTISRDNAKNTVYLQMNSLKPEDTAVYYCAKARTLRYDSWGQGTQVTVSS | low polyreactivity
21 | QVQLVESGGGLVQAGGSLRLSCAASGFIFYYYAMGWYRQAPGKERELVAAISVRGGRTYYADSVKGRFTISRDNAKNTVYLQMNSLKPEDTAVYYCAADLYNRGRGSSQSYRTGYDYWGQGTQVTVSS | high polyreactivity
22 | QVQLVESGGGLVQAGGSLRLSCAASGSTFGWYTMAWYRQAPGKERELVAAITSRGTRTSYADSVKGRFTISRDNAKNTVYLQMNSLKPEETAVYYCAARVFRGLGEYYWGQGTQVTVSS | high polyreactivity
23 | QVQLVESGGGLVQAGGSLRLSCAASGRTFGRYAMGWYRKAPGKERELVAAISCSGGSTYYADSVKGRFTISRDNAKNTVYLQMNSLKPEDTAVYYCAADWRQGLWYGYYYWGQGTQVTVSS | low polyreactivity
24 | QVQLVDSGGGLVQAGGSLRISCPASGRIIDLNARGWYRQAPGKERELVAAISYSGGRTFYADSVKGRFTISRDNAKNTVDLQMISLKPEVTAVYYCNVRRGDRFVRHDYWGQGSQVTVSS | low polyreactivity
25 | QFQLVESVGGLVQAGGSLRLSCAASGFIFGGYAMGWYIKAPGKERELVAAISSSGGSTYYADSVKGRFTISRDNAKNTVYLQMNSLKPEDTAVYYCAKVGWSRRYYYWGQGTQVTVSS | high polyreactivity
26 | QVQLVESGGGLVQAGGSLRLSCAASGSIFVHYAMGWYRQAPGKERELVARISWRGNTYYADSVKGRFTISRDNAKNTVYLQMNSLKPEDTAVYYCATGQSVIYRYEYWGQGTQVTVSS | low polyreactivity
27 | QVQLVESGGGLVQAGGSLRLSCAASGYTFRYYVMGWYIQAPGQERELVATISRGGRTNYADSVKGRFTISRDNAKNTVYLQMNSLKPEDTAVYYCNARTLYAYITRDYWGQGTQVTVSS | high polyreactivity
28 | QVQLVESGRGLVQAGGSLRLSCAASGRIFRSYAMGWYIPAPGKERELFAAISRSGGSTYYADSVKGRFTISRDNGKNTVYLQMNSLKPEDTAVYYCASRYSLGTNSKFFAYGYWGQGTQVNVSS | high polyreactivity
29 | QDQLVDSGGGLVQAGGSLRLSCAASGRIFRGNAMGWYRQAPGKERELVAAISNSGGRTYYADSVKGRFTISRDNAKNTVYLQMNSLKPDDTAVSYCAAKAPVIFWDTRIVPGYSGYYYWGQGTQVTVSS | high polyreactivity
30 | QVQLVESGGGLDPAGGSLRLSCAASGFTFYRNAMGWYRQAPGKERELVAGITRSGGSTYYADSVKGRFTISRDNAKNTVYLQMNSLKPEDTAVYYCNKAYGGVKYSGTYDYWGQGTQVTVSS | high polyreactivity
